Results: patent US20060263802A1 (CRUCELL HOLLAND B V, published 2006)

Experiments:
Experiment in all cases: PEPSCAN ELISA, looped peptide, antibody 10 µg/ml
[1] = target: looped/cyclic peptide … (rabies virus strain ERA)
[2] = target: looped/cyclic peptide […] (rabies virus strain ERA)
[3] = target: looped/cyclic peptide … (rabies virus strain ERA); remark: listed apart in the source
[4] = target: looped/cyclic peptide … (rabies virus strain ERA); remark: listed apart in the source
[5] = target: looped/cyclic peptide … (rabies virus strain ERA); remark: listed apart in the source
[6] = target: looped/cyclic peptide … (rabies virus strain ERA); remark: listed apart in the source
[7] = target: looped/cyclic peptide … (rabies virus strain ERA); remark: listed apart in the source
[8] = target: looped/cyclic peptide … (rabies virus strain ERA); remark: listed apart in the source
[9] = target: looped/cyclic peptide … (rabies virus strain ERA); remark: listed apart in the source
[10] = target: looped/cyclic peptide … (rabies virus strain ERA); remark: listed apart in the source
[11] = target: looped/cyclic peptide … (rabies virus strain ERA); remark: listed apart in the source
[12] = target: looped/cyclic peptide … (rabies virus strain ERA); remark: listed apart in the source
[13] = target: looped/cyclic peptide … (rabies virus strain ERA); remark: listed apart in the source
[14] = target: looped/cyclic peptide … (rabies virus strain ERA); remark: listed apart in the source
[15] = target: looped/cyclic peptide … (rabies virus strain ERA); remark: listed apart in the source
[16] = target: looped/cyclic peptide … (rabies virus strain ERA); remark: listed apart in the source
[17] = target: looped/cyclic peptide … (rabies virus strain ERA); remark: listed apart in the source
[18] = target: looped/cyclic peptide … (rabies virus strain ERA); remark: listed apart in the source
[19] = target: looped/cyclic peptide … (rabies virus strain ERA); remark: listed apart in the source
[20] = target: looped/cyclic peptide … (rabies virus strain ERA); remark: listed apart in the source
[21] = target: looped/cyclic peptide … (rabies virus strain ERA); remark: listed apart in the source
[22] = target: looped/cyclic peptide … (rabies virus strain ERA); remark: listed apart in the source
[23] = target: looped/cyclic peptide … (rabies virus strain ERA); remark: listed apart in the source
[24] = target: looped/cyclic peptide … (rabies virus strain ERA); remark: listed apart in the source
[25] = target: looped/cyclic peptide … (rabies virus strain ERA); remark: listed apart in the source
[26] = target: looped/cyclic peptide … (rabies virus strain ERA); remark: listed apart in the source
[27] = target: looped/cyclic peptide … (rabies virus strain ERA); remark: listed apart in the source
[28] = target: looped/cyclic peptide … (rabies virus strain ERA); remark: listed apart in the source
[29] = target: looped/cyclic peptide … (rabies virus strain ERA); remark: listed apart in the source
[30] = target: looped/cyclic peptide … (rabies virus strain ERA); remark: listed apart in the source
[31] = target: looped/cyclic peptide … (rabies virus strain ERA); remark: listed apart in the source
[32] = target: looped/cyclic peptide … (rabies virus strain ERA); remark: listed apart in the source
[33] = target: looped/cyclic peptide … (rabies virus strain ERA); remark: listed apart in the source
[34] = target: looped/cyclic peptide … (rabies virus strain ERA); remark: listed apart in the source
[35] = target: looped/cyclic peptide … (rabies virus strain ERA); remark: listed apart in the source
[36] = target: looped/cyclic peptide … (rabies virus strain ERA); remark: listed apart in the source
[37] = target: looped/cyclic peptide … (rabies virus strain ERA); remark: listed apart in the source
[38] = target: looped/cyclic peptide … (rabies virus strain ERA); remark: listed apart in the source
[39] = target: looped/cyclic peptide … (rabies virus strain ERA); remark: listed apart in the source
[40] = target: looped/cyclic peptide … (rabies virus strain ERA); remark: listed apart in the source
[41] = target: looped/cyclic peptide … (rabies virus strain ERA); remark: listed apart in the source
[42] = target: looped/cyclic peptide … (rabies virus strain ERA); remark: listed apart in the source
[43] = target: looped/cyclic peptide … (rabies virus strain ERA); remark: listed apart in the source
[44] = target: looped/cyclic peptide … (rabies virus strain ERA); remark: listed apart in the source
[45] = target: looped/cyclic peptide … (rabies virus strain ERA); remark: listed apart in the source
[46] = target: looped/cyclic peptide … (rabies virus strain ERA); remark: listed apart in the source
[47] = target: looped/cyclic peptide … (rabies virus strain ERA); remark: listed apart in the source
[48] = target: looped/cyclic peptide … (rabies virus strain ERA); remark: listed apart in the source
[49] = target: looped/cyclic peptide … (rabies virus strain ERA); remark: listed apart in the source
[50] = target: looped/cyclic peptide … (rabies virus strain ERA); remark: listed apart in the source
[51] = target: looped/cyclic peptide … (rabies virus strain ERA); remark: listed apart in the source
[52] = target: looped/cyclic peptide … (rabies virus strain ERA); remark: listed apart in the source
[53] = target: looped/cyclic peptide … (rabies virus strain ERA); remark: listed apart in the source
[54] = target: looped/cyclic peptide … (rabies virus strain ERA); remark: listed apart in the source
[55] = target: looped/cyclic peptide … (rabies virus strain ERA); remark: listed apart in the source
[56] = target: looped/cyclic peptide … (rabies virus strain ERA); remark: listed apart in the source
[57] = target: looped/cyclic peptide … (rabies virus strain ERA); remark: listed apart in the source
[58] = target: looped/cyclic peptide … (rabies virus strain ERA); remark: listed apart in the source
[59] = target: looped/cyclic peptide DIHHLSCPNNLVVED (rabies virus strain ERA)
[60] = target: looped/cyclic peptide … (rabies virus strain ERA); remark: listed apart in the source
[61] = target: looped/cyclic peptide … (rabies virus strain ERA); remark: listed apart in the source
[62] = target: looped/cyclic peptide … (rabies virus strain ERA); remark: listed apart in the source
[63] = target: looped/cyclic peptide … (rabies virus strain ERA); remark: listed apart in the source
[64] = target: looped/cyclic peptide … (rabies virus strain ERA); remark: listed apart in the source
[65] = target: looped/cyclic peptide … (rabies virus strain ERA); remark: listed apart in the source
[66] = target: looped/cyclic peptide … (rabies virus strain ERA); remark: listed apart in the source
[67] = target: looped/cyclic peptide … (rabies virus strain ERA); remark: listed apart in the source
[68] = target: looped/cyclic peptide … (rabies virus strain ERA); remark: listed apart in the source
[69] = target: looped/cyclic peptide … (rabies virus strain ERA); remark: listed apart in the source
[70] = target: looped/cyclic peptide … (rabies virus strain ERA); remark: listed apart in the source
[71] = target: looped/cyclic peptide … (rabies virus strain ERA); remark: listed apart in the source
[72] = target: looped/cyclic peptide … (rabies virus strain ERA); remark: listed apart in the source
[73] = target: looped/cyclic peptide … (rabies virus strain ERA); remark: listed apart in the source
[74] = target: looped/cyclic peptide … (rabies virus strain ERA); remark: listed apart in the source
[75] = target: looped/cyclic peptide … (rabies virus strain ERA); remark: listed apart in the source

B1: human monoclonal antibody CRJB (antibody, V domains shown)
VH: QITLKETGPTLVKPTQTLTLTCTFSGFSLSTSGVGVGWIRQPPGKALEWVTLIYWDDDKRYSPSLENRVTIRKDTSKNQVALTMTNMDPLDTGTYYCAHRQHISSFPWFDSWGQGTLVTVSS
VL: SYVLTQPPSVSVAPGKTARINCGGNNIEYRSVHWYQQKSGQAPVAVIYDNSDRPSGIPERFSGSKSGNTATLTISRVEAGDEADYYCQVWDISSDVVFGGGTKLTVLG
OD value [1]: 73 OD
OD value [2]: 138 OD
OD value [3]: 51 OD
OD value [4]: 83 OD
OD value [5]: 74 OD
OD value [6]: 84 OD
OD value [7]: 72 OD
OD value [8]: 83 OD
OD value [9]: 78 OD
OD value [10]: 99 OD
OD value [11]: 55 OD
OD value [12]: 98 OD
OD value [13]: 57 OD
OD value [14]: 77 OD
OD value [15]: 54 OD
OD value [16]: 65 OD
OD value [17]: 72 OD
OD value [18]: 88 OD
OD value [19]: 102 OD
OD value [20]: 89 OD
OD value [21]: 83 OD
OD value [22]: 93 OD
OD value [23]: 70 OD
OD value [24]: 54 OD
OD value [25]: 62 OD
OD value [26]: 50 OD
OD value [27]: 92 OD
OD value [28]: 64 OD
OD value [29]: 88 OD
OD value [30]: 70 OD
OD value [31]: 85 OD
OD value [32]: 78 OD
OD value [33]: 82 OD
OD value [34]: 65 OD
OD value [35]: 85 OD
OD value [36]: 69 OD
OD value [37]: 92 OD
OD value [38]: 71 OD
OD value [39]: 85 OD
OD value [40]: 65 OD
OD value [41]: 63 OD
OD value [42]: 78 OD
OD value [43]: 64 OD
OD value [44]: 107 OD
OD value [45]: 69 OD
OD value [46]: 96 OD
OD value [47]: 68 OD
OD value [48]: 92 OD
OD value [49]: 75 OD
OD value [50]: 60 OD
OD value [51]: 74 OD
OD value [52]: 65 OD
OD value [53]: 79 OD
OD value [54]: 96 OD
OD value [55]: 79 OD
OD value [56]: 90 OD
OD value [57]: 90 OD
OD value [58]: 82 OD
OD value [59]: 48 OD
OD value [60]: 58 OD
OD value [61]: 80 OD
OD value [62]: 68 OD
OD value [63]: 83 OD
OD value [64]: 71 OD
OD value [65]: 33 OD
OD value [66]: 83 OD
OD value [67]: 83 OD
OD value [68]: 83 OD
OD value [69]: 55 OD
OD value [70]: 60 OD
OD value [71]: 92 OD
OD value [72]: 66 OD
OD value [73]: 69 OD
OD value [74]: 86 OD
OD value [75]: 77 OD
